± gives the uncertainty stated by the source.
B1: Retinoic acid receptor beta, residues 85 to 161; numbered along this chain, P10826 (parent)
chain: YKPCFVCQDKSSGYHYGVSACEGCKGFFRRSIQKNMIYTCHRDKNCVINKVTRNRCQYCRLQKCFEVGMSKESVRND

Variants of: B1
Assay: abundance fitness (aPCA) (normalised: wild type 0, dead -1); higher = more abundant; growth selection in yeast, the domain comes from the species named
Settings: Homo sapiens

In order of rising abundance fitness:
1. YKPTFVCQDKSSGYHYGVSACEGCKGFFRRSIQKNMIYTCHRDKNCVINKVTRNRCQYCRLQKCFEVGMSKESVRND  -1.26 ± 0.39
2. YKPWFVCQDKSSGYHYGVSACEGCKGFFRRSIQKNMIYTCHRDKNCVINKVTRNRCQYCRLQKCFEVGMSKESVRND  -0.954 ± 0.22
3. YKPCFVCQDKSSGYHYGVSACEGCKGFFRRSIQKNMIYTCHRDKNCVINKVTRNRCQYCRKQKCFEVGMSKESVRND  -0.946 ± 0.2
4. YKPCFVCQDKSSGYHYGVSACEGCKGFFRRSIQKNMIYTCHRDKNCVINKVTRNRCQYCDLQKCFEVGMSKESVRND  -0.901 ± 0.21
5. YKPCFVCQDKSSGYHYGVSACEGCKGFFRRSIQKNMIYTKHRDKNCVINKVTRNRCQYCRLQKCFEVGMSKESVRND  -0.848 ± 0.15
6. YKPRFVCQDKSSGYHYGVSACEGCKGFFRRSIQKNMIYTCHRDKNCVINKVTRNRCQYCRLQKCFEVGMSKESVRND  -0.827 ± 0.088
7. YKPCFVCQDKSSGYHYGVSACEGCKGFFRRSIQKNMIYTDHRDKNCVINKVTRNRCQYCRLQKCFEVGMSKESVRND  -0.825 ± 0.19
8. YKPCFVCQDKSSGYHYGVSACEGCKGFFRRSIPKNMIYTCHRDKNCVINKVTRNRCQYCRLQKCFEVGMSKESVRND  -0.773 ± 0.18
9. YKPCFVCQDKSSGYHYGVSACEGCKGFFRRSIQKNMIYTCHRDKNCVINKVTRNRCQYCRLQKCFEVMMSKESVRND  -0.77 ± 0.17
10. YKPMFVCQDKSSGYHYGVSACEGCKGFFRRSIQKNMIYTCHRDKNCVINKVTRNRCQYCRLQKCFEVGMSKESVRND  -0.754 ± 0.16
11. YKPCFVCQDKSSGYHYGVSACEGCKGFFRRSIQKNMIYTCHRDKNCVINKVTRNRCQYCRLQKCFEVQMSKESVRND  -0.698 ± 0.17
12. YKPCFVCQDKSSGYHYGVSACEGCKGDFRRSIQKNMIYTCHRDKNCVINKVTRNRCQYCRLQKCFEVGMSKESVRND  -0.698 ± 0.17
13. YKPCFVCQDKSSGYHYGVSACEGCKGFFRCSIQKNMIYTCHRDKNCVINKVTRNRCQYCRLQKCFEVGMSKESVRND  -0.694 ± 0.24
14. YKPCFVCQDKSSGYHYGVSACEGCKGFFRRSIQKNMIYTCHRDKNCVPNKVTRNRCQYCRLQKCFEVGMSKESVRND  -0.417 ± 0.07
15. YKPCFVCQDKSSGYHYGVSACEGCKGFFRRSIQKNMIYTCHRDKNCVIYKVTRNRCQYCRLQKCFEVGMSKESVRND  -0.37 ± 0.091
16. YKPCFVCQDKSSGYHYGVSACEGCKGFFRRSIQKNMIYTCHRDKNCVINKVTRNRCQYCVLQKCFEVGMSKESVRND  -0.369 ± 0.052
17. YKPCFVCQDKSSGYHYGVSACEGCKGFFRRSIQKNMIYTCHRDKNCVINKVTRNRCQYCRLQKCFEVGMSKESVRNN  -0.333 ± 0.1
18. YWPCFVCQDKSSGYHYGVSACEGCKGFFRRSIQKNMIYTCHRDKNCVINKVTRNRCQYCRLQKCFEVGMSKESVRND  -0.308 ± 0.093
19. YKPCFVCQDKSSGYHYGVSACEGCKGFFRRSICKNMIYTCHRDKNCVINKVTRNRCQYCRLQKCFEVGMSKESVRND  -0.225 ± 0.087
20. YKPCFVCQDKSSGYHYGVSACAGCKGFFRRSIQKNMIYTCHRDKNCVINKVTRNRCQYCRLQKCFEVGMSKESVRND  -0.209 ± 0.05
21. YKPCFVCQDKSSGYHYGVSACEGCKGFFRRSIQKNMCYTCHRDKNCVINKVTRNRCQYCRLQKCFEVGMSKESVRND  -0.204 ± 0.099
22. YKPCFVCQDKSSGYHYGVSACEGCKGFFRRSIQKNMIYTCHRDKNCVINKVTRNRCQYCRYQKCFEVGMSKESVRND  -0.181 ± 0.098
23. YKPCFVCQDKSSGYHYGVSACEGCKGFFRRSIQKNMIYTCHRDKNCVINKVTRNRCQYCRLQKCFEVGMSKESVRHD  -0.144 ± 0.21
24. YKPCFVCQDKSSGYHYGVSACEGCKGFFRRSIQKNMIYTCHRDKNCVINKVTRNRCQYCRLQKCFEVGMSKGSVRND  -0.128 ± 0.038
25. YKPCFVCFDKSSGYHYGVSACEGCKGFFRRSIQKNMIYTCHRDKNCVINKVTRNRCQYCRLQKCFEVGMSKESVRND  -0.092 ± 0.071
26. YKPCFVCQDKSSGYHYGVSACEGCKGFFRRSIQKNMLYTCHRDKNCVINKVTRNRCQYCRLQKCFEVGMSKESVRND  -0.053 ± 0.045
27. YKPCFVCQDKSSGYHYGVSACEGCKGFFRRSIQKNMIYTCHRDKNCVINKVWRNRCQYCRLQKCFEVGMSKESVRND  -0.047 ± 0.04
28. YKPCFVCQDKSSGNHYGVSACEGCKGFFRRSIQKNMIYTCHRDKNCVINKVTRNRCQYCRLQKCFEVGMSKESVRND  -0.041 ± 0.07
29. YKPCFVCQDKSSGYHQGVSACEGCKGFFRRSIQKNMIYTCHRDKNCVINKVTRNRCQYCRLQKCFEVGMSKESVRND  -0.027 ± 0.091
30. YKPCFVCQDKSSGYHYGVSACEGCKGFFRRSIQKNMIYTCHRDKNCVINKVTRNRCQYCRLQKCFEVGMSKESVRFD  -0.012 ± 0.11
31. YKPCFVCQDKSSGYHYGVSACEGCKGFFRRSIQKNMIYTCHRDKNCVINKVTRNRCQYCRLQKCYEVGMSKESVRND  -0.009 ± 0.087
32. YKPCFVCQDKSSGYHYGVSACEGCKGFFRRSIQKNMIYTCHRDKNCVINKVTRNRCQYCRLQKCMEVGMSKESVRND  0.026 ± 0.044
33. YKPCFVCQDKSSGYHYGVSACEGCKGFFRRSIQKNMIYTCHRDKNCVINKVTRNRCQYCRLQKCFEVGMSKNSVRND  0.04 ± 0.07
34. YKPCFVCQDKSSGYHYGVSACEGCKGFFRRSIQKGMIYTCHRDKNCVINKVTRNRCQYCRLQKCFEVGMSKESVRND  0.077 ± 0.032
35. YKPCFVCQDKSSGYHYGVSACEGCKGFFRDSIQKNMIYTCHRDKNCVINKVTRNRCQYCRLQKCFEVGMSKESVRND  0.234 ± 0.072
